T1: Myo5, Q04439
T1 sequence (Q04439 1072-1160, looked up): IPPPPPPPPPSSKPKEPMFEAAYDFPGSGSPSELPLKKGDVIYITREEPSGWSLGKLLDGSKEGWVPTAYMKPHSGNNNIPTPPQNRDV

T2: Abp1, P15891
T2 sequence (P15891 535-592, looked up): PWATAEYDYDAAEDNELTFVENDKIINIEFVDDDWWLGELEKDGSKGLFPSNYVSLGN

T3: Pex13, P80667
T3 sequence (P80667 295-386, looked up): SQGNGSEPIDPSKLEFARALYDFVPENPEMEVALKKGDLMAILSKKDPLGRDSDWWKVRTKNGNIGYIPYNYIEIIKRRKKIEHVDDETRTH

T4: Boi2, P39969
T4 sequence (P39969 32-116, looked up): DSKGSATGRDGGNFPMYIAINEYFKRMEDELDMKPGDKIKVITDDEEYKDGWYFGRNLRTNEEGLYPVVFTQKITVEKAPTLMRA

T5: Cyk3, Q07533
T5 sequence (Q07533 1-83, looked up): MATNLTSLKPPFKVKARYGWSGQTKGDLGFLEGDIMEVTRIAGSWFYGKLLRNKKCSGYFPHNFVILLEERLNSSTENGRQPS

T6: Bbc1, P47068
T6 sequence (P47068 1-78, looked up): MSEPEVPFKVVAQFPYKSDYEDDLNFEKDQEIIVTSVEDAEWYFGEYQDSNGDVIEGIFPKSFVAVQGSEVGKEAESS

T7: Bzz1-2, P38822
T7 sequence (P38822 568-633, looked up): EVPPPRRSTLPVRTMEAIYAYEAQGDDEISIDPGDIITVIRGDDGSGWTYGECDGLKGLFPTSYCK

T8: Hof1, Q05080
T8 sequence (Q05080 590-669, looked up): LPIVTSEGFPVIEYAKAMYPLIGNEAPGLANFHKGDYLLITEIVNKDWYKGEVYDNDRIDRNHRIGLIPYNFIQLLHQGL

T9: Sla1-3, P32790
T9 sequence (P32790 344-424, looked up): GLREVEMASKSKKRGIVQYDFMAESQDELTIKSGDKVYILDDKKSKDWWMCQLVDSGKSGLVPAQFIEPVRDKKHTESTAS

T10: Boi1, P38041
T10 sequence (P38041 1-86, looked up): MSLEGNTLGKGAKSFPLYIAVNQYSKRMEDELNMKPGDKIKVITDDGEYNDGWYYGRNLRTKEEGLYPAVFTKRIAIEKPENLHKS

T11: Bud14, P27637
T11 sequence (P27637 247-328, looked up): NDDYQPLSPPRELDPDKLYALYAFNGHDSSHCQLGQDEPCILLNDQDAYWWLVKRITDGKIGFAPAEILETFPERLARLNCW

T12: Pin3, Q06449
T12 sequence (Q06449 53-122, looked up): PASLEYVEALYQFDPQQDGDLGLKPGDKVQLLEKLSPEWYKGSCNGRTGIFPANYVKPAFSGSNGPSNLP

T13: Lsb3, P43603
T13 sequence (P43603 385-451, looked up): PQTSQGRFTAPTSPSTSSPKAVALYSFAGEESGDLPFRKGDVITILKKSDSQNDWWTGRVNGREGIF

T14: Sla1-2, P32790
T14 sequence (P32790 60-140, looked up): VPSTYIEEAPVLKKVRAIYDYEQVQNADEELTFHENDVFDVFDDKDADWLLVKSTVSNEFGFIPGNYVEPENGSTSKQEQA

T15: Cdc25, P04821
T15 sequence (P04821 50-136, looked up): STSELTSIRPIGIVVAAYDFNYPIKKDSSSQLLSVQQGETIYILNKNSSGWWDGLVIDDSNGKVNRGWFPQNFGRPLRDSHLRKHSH

T16: Nbp2, Q12163
T16 sequence (Q12163 103-180, looked up): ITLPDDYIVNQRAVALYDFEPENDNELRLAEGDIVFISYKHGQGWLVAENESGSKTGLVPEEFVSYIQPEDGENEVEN

T17: Hse1, P38753
T17 sequence (P38753 208-285, looked up): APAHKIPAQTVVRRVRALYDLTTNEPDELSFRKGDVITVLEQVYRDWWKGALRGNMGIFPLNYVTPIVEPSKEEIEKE

T18: Bzz1-1, P38822
T18 sequence (P38822 478-572, looked up): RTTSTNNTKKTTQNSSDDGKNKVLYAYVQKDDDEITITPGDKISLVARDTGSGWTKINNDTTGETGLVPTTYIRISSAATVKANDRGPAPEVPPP

T19: Lsb1, P53281
T19 sequence (P53281 45-122, looked up): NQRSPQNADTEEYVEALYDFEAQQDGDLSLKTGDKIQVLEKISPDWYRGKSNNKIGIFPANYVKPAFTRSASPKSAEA

T20: Fus1, P11710
T20 sequence (P11710 432-512, looked up): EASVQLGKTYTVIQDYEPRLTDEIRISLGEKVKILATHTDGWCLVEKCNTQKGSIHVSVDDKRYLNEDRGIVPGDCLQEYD

T21: Lsb4, P32793
T21 sequence (P32793 402-468, looked up): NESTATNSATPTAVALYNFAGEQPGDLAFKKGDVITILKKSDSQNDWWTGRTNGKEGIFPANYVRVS


target: T1, Myo5, Q04439; assay: SPOT array; details: median of control spots 471

Row | SPOT intensity | Binder
1 | 101 | DLPLPDLPPEPPTEL
2 | 453 | DTFLPPPPPPPSNFE
3 | 234 | FTLPPPPPPPGLDEL

target: Sho1, P40073; assay: SPOT array; details: median of control spots 1148
Sequence (P40073 287-367): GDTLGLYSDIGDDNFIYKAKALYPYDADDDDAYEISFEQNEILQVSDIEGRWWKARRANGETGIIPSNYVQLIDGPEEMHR

Row | SPOT intensity | Binder
4 | 0 | DLPLPDLPPEPPTEL
5 | 0 | DTFLPPPPPPPSNFE
6 | 0 | FTLPPPPPPPGLDEL

target: T2, Abp1, P15891; assay: SPOT array; details: median of control spots 935

Row | SPOT intensity | Binder
7 | 0 | DLPLPDLPPEPPTEL
8 | 0 | DTFLPPPPPPPSNFE
9 | 0 | FTLPPPPPPPGLDEL

target: Rvs167, P39743; assay: SPOT array; details: median of control spots 2707
Sequence (P39743 419-482): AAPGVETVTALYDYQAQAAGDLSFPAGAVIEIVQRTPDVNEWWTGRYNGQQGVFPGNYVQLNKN

Row | SPOT intensity | Binder
10 | 0 | DLPLPDLPPEPPTEL
11 | 0 | DTFLPPPPPPPSNFE
12 | 0 | FTLPPPPPPPGLDEL

target: T3, Pex13, P80667; assay: SPOT array; details: median of control spots 1341

Row | SPOT intensity | Binder
13 | 0 | DLPLPDLPPEPPTEL
14 | 8 | DTFLPPPPPPPSNFE
15 | 13 | FTLPPPPPPPGLDEL

target: T4, Boi2, P39969; assay: SPOT array; details: median of control spots 1161

Row | SPOT intensity | Binder
16 | 1 | DLPLPDLPPEPPTEL
17 | 3 | DTFLPPPPPPPSNFE
18 | 0 | FTLPPPPPPPGLDEL

target: Bem1-1, P29366; assay: SPOT array; details: median of control spots 4282
Sequence (P29366 55-141): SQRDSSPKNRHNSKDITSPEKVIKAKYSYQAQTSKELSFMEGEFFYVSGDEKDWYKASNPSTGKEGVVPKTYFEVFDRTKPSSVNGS

Row | SPOT intensity | Binder
19 | 3 | DLPLPDLPPEPPTEL
20 | 0 | DTFLPPPPPPPSNFE
21 | 0 | FTLPPPPPPPGLDEL

target: Myo3, P36006; assay: SPOT array; details: median of control spots 468

Row | SPOT intensity | Binder
22 | 262 | DLPLPDLPPEPPTEL
23 | 518 | DTFLPPPPPPPSNFE
24 | 455 | FTLPPPPPPPGLDEL

target: T5, Cyk3, Q07533; assay: SPOT array; details: median of control spots 1451

Row | SPOT intensity | Binder
25 | 0 | DLPLPDLPPEPPTEL
26 | 0 | DTFLPPPPPPPSNFE
27 | 2 | FTLPPPPPPPGLDEL

target: T6, Bbc1, P47068; assay: SPOT array; details: median of control spots 796

Row | SPOT intensity | Binder
28 | 0 | DLPLPDLPPEPPTEL
29 | 0 | DTFLPPPPPPPSNFE
30 | 0 | FTLPPPPPPPGLDEL

target: T7, Bzz1-2, P38822; assay: SPOT array; details: median of control spots 4538

Row | SPOT intensity | Binder
31 | 0 | DLPLPDLPPEPPTEL
32 | 0 | DTFLPPPPPPPSNFE
33 | 0 | FTLPPPPPPPGLDEL

target: T8, Hof1, Q05080; assay: SPOT array; details: median of control spots 4086

Row | SPOT intensity | Binder
34 | 566 | DLPLPDLPPEPPTEL
35 | 0 | DTFLPPPPPPPSNFE
36 | 116 | FTLPPPPPPPGLDEL

target: T9, Sla1-3, P32790; assay: SPOT array; details: median of control spots 5475

Row | SPOT intensity | Binder
37 | 0 | DLPLPDLPPEPPTEL
38 | 0 | DTFLPPPPPPPSNFE
39 | 0 | FTLPPPPPPPGLDEL

target: T10, Boi1, P38041; assay: SPOT array; details: median of control spots 1162

Row | SPOT intensity | Binder
40 | 2 | DLPLPDLPPEPPTEL
41 | 1 | DTFLPPPPPPPSNFE
42 | 0 | FTLPPPPPPPGLDEL

target: T11, Bud14, P27637; assay: SPOT array; details: median of control spots 956

Row | SPOT intensity | Binder
43 | 0 | DLPLPDLPPEPPTEL
44 | 0 | DTFLPPPPPPPSNFE
45 | 0 | FTLPPPPPPPGLDEL

target: T12, Pin3, Q06449; assay: SPOT array; details: median of control spots 2171

Row | SPOT intensity | Binder
46 | 0 | DLPLPDLPPEPPTEL
47 | 0 | DTFLPPPPPPPSNFE
48 | 0 | FTLPPPPPPPGLDEL

target: T13, Lsb3, P43603; assay: SPOT array; details: median of control spots 406

Row | SPOT intensity | Binder
49 | 0 | DLPLPDLPPEPPTEL
50 | 0 | DTFLPPPPPPPSNFE
51 | 0 | FTLPPPPPPPGLDEL

target: T14, Sla1-2, P32790; assay: SPOT array; details: median of control spots 712

Row | SPOT intensity | Binder
52 | 0 | DLPLPDLPPEPPTEL
53 | 0 | DTFLPPPPPPPSNFE
54 | 0 | FTLPPPPPPPGLDEL

target: T15, Cdc25, P04821; assay: SPOT array; details: median of control spots 969

Row | SPOT intensity | Binder
55 | 2 | DLPLPDLPPEPPTEL
56 | 0 | DTFLPPPPPPPSNFE
57 | 0 | FTLPPPPPPPGLDEL

target: T16, Nbp2, Q12163; assay: SPOT array; details: median of control spots 357

Row | SPOT intensity | Binder
58 | 0 | DLPLPDLPPEPPTEL
59 | 0 | DTFLPPPPPPPSNFE
60 | 0 | FTLPPPPPPPGLDEL

target: Bem1-2, P29366; assay: SPOT array; details: median of control spots 4347
Sequence (P29366 139-227): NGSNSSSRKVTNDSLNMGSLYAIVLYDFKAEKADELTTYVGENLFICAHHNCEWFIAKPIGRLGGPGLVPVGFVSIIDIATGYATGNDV

Row | SPOT intensity | Binder
61 | 0 | DLPLPDLPPEPPTEL
62 | 0 | DTFLPPPPPPPSNFE
63 | 0 | FTLPPPPPPPGLDEL

target: T17, Hse1, P38753; assay: SPOT array; details: median of control spots 1727

Row | SPOT intensity | Binder
64 | 0 | DLPLPDLPPEPPTEL
65 | 0 | DTFLPPPPPPPSNFE
66 | 0 | FTLPPPPPPPGLDEL

target: T18, Bzz1-1, P38822; assay: SPOT array; details: median of control spots 4446

Row | SPOT intensity | Binder
67 | 0 | DLPLPDLPPEPPTEL
68 | 3 | DTFLPPPPPPPSNFE
69 | 7 | FTLPPPPPPPGLDEL

target: GST; assay: SPOT array; details: median of control spots 978

Row | SPOT intensity | Binder
70 | 1 | DLPLPDLPPEPPTEL
71 | 0 | DTFLPPPPPPPSNFE
72 | 1 | FTLPPPPPPPGLDEL

target: T19, Lsb1, P53281; assay: SPOT array; details: median of control spots 388

Row | SPOT intensity | Binder
73 | 0 | DLPLPDLPPEPPTEL
74 | 0 | DTFLPPPPPPPSNFE
75 | 0 | FTLPPPPPPPGLDEL

target: T20, Fus1, P11710; assay: SPOT array; details: median of control spots 1200

Row | SPOT intensity | Binder
76 | 0 | DLPLPDLPPEPPTEL
77 | 0 | DTFLPPPPPPPSNFE
78 | 0 | FTLPPPPPPPGLDEL

target: T21, Lsb4, P32793; assay: SPOT array; details: median of control spots 397

Row | SPOT intensity | Binder
79 | 0 | DLPLPDLPPEPPTEL
80 | 0 | DTFLPPPPPPPSNFE
81 | 0 | FTLPPPPPPPGLDEL

Source: paper PMC2756588
